These results are taken from doi:10.1101/2021.04.13.439655.

In test [1] the target is extended construct of the non-phosphorylated Smad2 MH2 domain (S2LMH2). Put plainly: SAXS with ensemble optimization method.
Test [2] deals with full-length phosphomimetic Smad2 (S2FLEEE) (UniProt Q15796). Put plainly: SAXS with ensemble optimization method.

Chain of full-length phosphomimetic Smad2 (S2FLEEE) (from UniProt Q15796 1-467) (natural protein) (Q15796 whole entry): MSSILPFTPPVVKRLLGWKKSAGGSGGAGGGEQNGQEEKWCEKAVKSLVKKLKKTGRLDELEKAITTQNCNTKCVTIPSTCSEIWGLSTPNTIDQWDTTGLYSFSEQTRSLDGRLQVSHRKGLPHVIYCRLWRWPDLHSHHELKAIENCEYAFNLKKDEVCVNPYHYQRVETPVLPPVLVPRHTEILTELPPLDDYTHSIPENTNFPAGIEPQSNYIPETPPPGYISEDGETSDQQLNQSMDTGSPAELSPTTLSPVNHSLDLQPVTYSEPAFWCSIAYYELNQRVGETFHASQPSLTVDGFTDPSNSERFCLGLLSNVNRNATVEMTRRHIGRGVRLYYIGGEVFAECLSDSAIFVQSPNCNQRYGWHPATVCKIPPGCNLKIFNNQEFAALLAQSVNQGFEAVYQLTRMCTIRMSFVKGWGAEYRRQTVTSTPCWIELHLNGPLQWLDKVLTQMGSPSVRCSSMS
Chain of extended construct of the non-phosphorylated Smad2 MH2 domain (S2LMH2) (domain or fragment) (Q15796 269-467): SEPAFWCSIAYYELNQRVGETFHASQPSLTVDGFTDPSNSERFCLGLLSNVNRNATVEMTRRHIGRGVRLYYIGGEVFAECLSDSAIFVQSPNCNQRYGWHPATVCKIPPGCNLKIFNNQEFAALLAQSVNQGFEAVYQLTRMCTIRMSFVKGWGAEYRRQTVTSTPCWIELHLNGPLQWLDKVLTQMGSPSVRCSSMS

“extended construct of the non-phosphorylated Smad2 MH2 domain (S2LMH2) (domain or fragment)”: in test [1], the percent of the total population as trimer at 15 and 30 μM worked out at 50%; the stoichiometry N – broadly, the number of molecules, sites or subunits per partner or assembly – is 3.
Turning to “full-length phosphomimetic Smad2 (S2FLEEE) (from UniProt Q15796 1-467) (natural protein)”, in test [2], the percent of the population as dimer at all concentrations analyzed was 36% and the percent of the population as trimer at 28.1 μM was 44.8%.
